Assays:
[1] = target: T1, recombinant full-length PcrV protein (1-294) of Pseudomonas aeruginosa (Pseudomonas aeruginosa, in the biotin-labeled form: PEO-maleimide biotin on the cysteine inserted between histidine tag and start codon); assay: SPR, BIAcore T100, antibody captured by anti-mouse antibody on CM5 chip, recombinant PcrV as analyte
T1 construct: also called PcrV antigen; recombinant PcrV; not shown: N-terminal histidine tag encoded by the expression vector (pWE30 [sic] / pQE30)

truncated PcrV (136-233) = target: T2, truncated PcrV (136-233) (Pseudomonas aeruginosa); assay: Western blotting: purified recombinant truncated PcrV on SDS-PAGE/PVDF, antibody at 1 ug/mL, labeled anti-mouse IgG, ECL [panel Truncated PcrV (136-233]
T2 construct: also called truncated PcrV protein

[2] = target: T1, recombinant full-length PcrV protein …; assay: surface plasmon resonance analysis, PcrV antigen
[3] = target: T1, recombinant full-length PcrV protein …; assay: SPR, BIAcore T-100, culture supernatant, recombinant PcrV (FIG. 13)
[4] = target: T1, recombinant full-length PcrV protein …; assay: surface plasmon resonance analysis (BIAcore T-100), culture supernatant, recombinant PcrV
[5] = target: T1, recombinant full-length PcrV protein …; assay: surface plasmon resonance analysis, PcrV antigen; remark: listed apart in the source

Row | Binder | Kd [1] [nM] | binding result (truncated PcrV (136-233)) | Kd [2] [nM] | koff [2] [s⁻¹] | kon [2] [M⁻¹ s⁻¹] | Kd [3] [nM] | koff [4] [s⁻¹] | kon [4] [M⁻¹ s⁻¹] | Kd [5] [nM] | koff [5] [s⁻¹] | kon [5] [M⁻¹ s⁻¹]
1 | mouse monoclonal antibody 1F3 (antibody, V domains shown, also called m1F3; mouse PcrV antibody) VH: QVQLQQPGAELVKPGASVKLSCKASGYSFTSYWMHWVKQRPGQGLEWIGEINPSNGRTNYNEKFNTKATLTVDTSSSTAYMQLSSLTSEDSAVYYCVLYGNYVVYYTMDYWGQGTSVTVSS VL: QIVLTQSPTIMSASLGEEITLTCSASTSVSYMEWYQQKSGTSPKILIYTTSKLASGVPSRFSGSGSGTFYSLTISSVEAEDAADYYCHQWRNYPFTFGSGTKLEIK | 0.37 | binds | – | – | – | – | – | – | – | – | –
2 | mouse-human chimeric 1F3 antibody (antibody, V domains shown, Human IgG4Pro (S228P) heavy constant region and human Igkappa constant region; tested as culture supernatant; also called mouse-human chimeric antibody; mouse/human chimeric antibody) VH: QVQLQQPGAELVKPGASVKLSCKASGYSFTSYWMHWVKQRPGQGLEWIGEINPSNGRTNYNEKFNTKATLTVDTSSSTAYMQLSSLTSEDSAVYYCVLYGNYVVYYTMDYWGQGTSVTVSS VL: QIVLTQSPTIMSASLGEEITLTCSASTSVSYMEWYQQKSGTSPKILIYTTSKLASGVPSRFSGSGSGTFYSLTISSVEAEDAADYYCHQWRNYPFTFGSGTKLEIK | – | – | 0.49 | 0.00037 | 740000 | 0.26 | 0.00051 | 2e+06 | 0.27 | 0.00023 | 850000
3 | antibody including the heavy chain of the template humanized antibody and the light chain of the mutant humanized antibody (antibody, V domains shown, Human IgG4Pro (S228P) and human Igkappa constant regions; tested as culture supernatant; also called HT/LB) VH: QVQLVQSGAEVKKPGASVKVSCKASGYSFTSYWMHWVRQAPGQGLEWMGEINPSNGRTNYNEKFNTRVTMTRDTSTSTVYMELSSLRSEDTAVYYCARYGNYVVYYTMDYWGQGTTVTVSS VL: DIQLTQSPTFLSASVGDRVTITCSASTSVSYMEWYQQKPGKAPKILIYTTSKLASGVPSRFSGSGSGTEYTLTISSLQPEDFATYYCHQWRNYPFTFGQGTKLEIK | – | – | – | – | – | 650 | 0.04 | 62000 | – | – | –
4 | humanized monoclonal antibody h1F3 (antibody, V domains shown, also called humanized antibody; humanized PcrV antibody) VH: QVQLVQSGAEVKKPGASVKVSCKASGYSFTSYWMHWVRQAPGQGLEWMGEINPSNGRTNYNEKFNTRVTMTRDTSTSTVYMELSSLRSEDTAVYYCVLYGNYVVYYTMDYWGQGT VL: DIQLTQSPSFLSASVGDRVTITCSASTSVSYMEWYQQKPGKAPKLLIYTTSKLASGVPSRFSGSGSGTEFTLTISSLQPEDFATYYCHQWRNYPFTFGQGTKLEIKR | – | – | 0.38 | 0.00033 | 870000 | – | – | – | – | – | –
